Data reported in article PMC9606073 (Immunity, 2022).

B1: M8a-6 IgG (antibody, V domains shown)
VH: QVQLQQPGTELVMPGASVKLSCKTSGYTFTHYWMHWVKQRPGEGLEWIGEIAPSDNYVKYNQKFKGKSTLSVDRSSSTAYMQLSSLTSEDSAVYFCARPDNSGYPVYFDYWGQGTSLTVSS
VL: DIVMTQSQKFMSTSLGDRVSISCKASQDVGTTVAWYQQKPGQSPKLLIYWASTRHTGVPDRFTGTGSGTDYTLTISSVAAEDLALYYCQQHYNTPYTFGGGTKLEIE
notes: copies: 2 + 2
B2: C118 IgG (antibody, V domains shown)
VH: QVQLVESGGGVVQPGRSLRLSCAASGFTFSNYAMHWVRQAPGKGLEWVAVISYDGSNKYYADSVKGRFTISRDNSKNTLYLQMNSLRAEDTAIYYCASGYTGYDYFVRGDYYGLDVWGQGTTVTVSS
VL: QPVLTQSPSASASLGASVKLTCTLSSGHSSYAIAWHQQQPEKGPRYLMKLNTDGSHSKGDGIPDRFSGSSSGAERYLTISSLQSEDEADYYCQTWGTGILVFGGGTKLTVL
notes: copies: 2 + 2
B3: M8a-3 IgG (antibody, V domains shown)
VH: QVQLQQPGAELVLPGASVKLSCKASGYTFTNYWMHWVKQRPGHGLEWIGEIDPFDTYIKINQKFKGKSTLTVDTSSSTAYMQLSSLTSEDSAVYYCARPDSSGYPVYFDYWGQGTTLTVSS
VL: DIVMTQSHKFMSTSVGDRVSITCKASQDVGTYIAWYQQKPGQSPKLLIYWASTRHTGVPDRFTGSGSGTNYTLTISSVQAEDLALYHCQQHYSTPYTFGGGTKLEIK
notes: copies: 2 + 2

Biological target: SARS-CoV-2 Omicron BA.4/BA.5 RBD (SARS-CoV-2 Omicron BA.4/BA.5, strain)
Experiment: SPR
Conditions: both partners purified

Binder	Kd [nM]	koff [s⁻¹]	kon [M⁻¹ s⁻¹]
B1	290	–	–
B2	28	0.0039	140000
B3	2.2	0.00045	210000
